“Also recorded” adds a separate entry of the source.
Experiments:
Type in all cases: cell-based, human
[1] = test system: NGN3, NKX2.2, NKX6.1, PDX1 expression; assay: Quantitative PCR of relative gene expression in PEC cultures (NGN3, NKX2.2, NKX6.1, PDX1)
Protocol: The progression of pluripotent cells to various multipotent and/or differentiated cells can be monitored by determining the relative expression of genes, or gene markers, characteristic of a specific cell, as compared to the expression of a second or control gene, e.g., housekeeping genes. In some processes, the expression of certain markers is determined by detecting the presence or absence of the marker. Alternatively, the expression of certain markers can be determined by measuring the level at which the marker is present in the cells of the cell culture or cell population. In such processes, the measurement of marker expression can be qualitative or quantitative. One method of quantitating the expression of markers that are produced by marker genes is through the use of quantitative PCR (Q-PCR). Methods of performing Q-PCR are well known in the art. Other methods which are known in the art can also be used to quantitate marker gene expression. For example, the expression of a marker gene product can be detected by using antibodies specific for the marker gene product of interest.
(§1) Various growth factors were explored for their ability to suppress genes such as NGN3 during stages 3 and 4. One candidate growth factor was Activin which has diverse functions in stem cell expansion and differentiation. For example, at low levels (e.g. 10 ng/mL), Activin helps maintain pluripotent stem cell pluripotency and cell proliferation. At higher levels (e.g. 100 ng/mL) Activin acts as a differentiation growth factor responsible for definitive endoderm production at stage 1 (see e.g., Table 8). To test its effect on repressing cells committed to the endocrine lineage (CHGA+) during PEC formation, Applicant first tested Activin at a mid-level concentration of about 50 ng/mL with standard adherent differentiation.
Quantitative PCR analysis was performed to determine the relative levels of gene expression at days 8, 10 and 12 of differentiation with the above combinations of Activin and Heregulin (FIG. 13). […]

[2] = test system: hES-derived cell aggregates; assay: Cell aggregate size / cell mass in suspension culture (imaging)
Protocol: Preliminary studies were performed using Heregulin and FGF. In certain of these studies, Rho-kinase inhibitor, Y-27632, was included. […] An increase in cell aggregate size is advantageous in that it results in higher cell mass for later implantation and testing for function in animals.
as §1
(§2) So, Activin levels less than about 25 ng/mL are acceptable for maintaining cell mass and yield. Applicant then performed flow cytometry analysis on these cell cultures to determine whether Activin at low levels during stages 3 and 4 had any effect on cell aggregate composition; see Table 14. […] Advantageously, the PDX1 only and Triple Negative sub-populations are reduced as compared to the control, particularly when Activin is used in stages 3 and 4.
Pluripotent stem cells were differentiated using the standard protocol according to Table 8, except during stage 3, Activin was included at 10 ng/mL or 20 ng/mL in combination with Heregulin at 2 ng/mL or 10 ng/mL; and during stage 4, Activin was reduced to 5 ng/mL with Heregulin at 1 ng/mL for two days then at 10 ng/mL thereafter. […] Increasing Activin to 20 ng/mL with Heregulin remaining the same at 2 ng/mL exacerbated the cell loss (compare FIGS. 12B and 12C, top panel). […]

PEC derived from hESC = assay: Flow cytometry analysis of PEC derived from hESC (CHGA, NKX6.1, PDX1 sub-populations)
Protocol: as §2
To determine the cell composition of the PEC population with the combination of Activin, Heregulin and Wnt during stage 3, flow cytometry was performed after stage 4 and the PEC cellular composition is shown in Table 14. […] Data from flow cytometry supports and is consistent with data from QPCR that the combination of the three factors (AHW) in general delayed or suppressed differentiation of cells committed to the endocrine lineage (CHGA+) in PEC without affecting the production of the non-endocrine (CHGA−) sub-population. The delayed expression of these genes in vitro is consistent with their on-set (or delay) in in vivo mammalian pancreatic development, whereby NGN3 expression in endocrine differentiation occurs after the on-set of PDX1 and NKX6.1 expression in the non-endocrine (CHGA−) sub-population. Additionally, there was no compromise in the PEC mass and yield. […]
Undifferentiated human ESC were expanded and differentiated substantially as described above in Table 17 Protocol #1 for stages 1-4 and in Schulz et al. (2012) supra, except that during the three (3) days of stage 3, 4 different conditions were compared: (i) 0 noggin (“no noggin”) for all 3 days; (ii) 1 day of Noggin at 50 ng/mL and 2 days with no additional Noggin; (iii) 2 days of Noggin at 50 ng/mL and 1 day with no additional noggin; and (iv) 3 days of Noggin at 50 ng/mL. After stage 3, each of these conditions (i) through (iv) then received the standard stage 4 differentiation media cocktail according to Table 8 and Table 17, but without additional Noggin. […] Moreover, with each additional day of noggin treatment, fewer non-endocrine multipotent pancreatic progenitor sub-populations were produced (compare 90.6% with no noggin to 64.6% with 3 days of noggin treatment).

[3] = test system: INS, GCG, SST, GHRL, PDX1, NKX6.1, NGN3, ID1 expression; assay: Nanostring mRNA analysis of endocrine cell cultures
[4] = A5 Stg3&4: 5 ng/mL Activin at stages 3 and 4
[5] = A5 Stg3: 5 ng/mL Activin at stage 3
[6] = A10 Stg3: 10 ng/mL Activin at stage 3
[7] = N50-1day: Noggin 50 ng/mL for 1 day of stage 3, after stage 4
[8] = N50-2day: Noggin 50 ng/mL for 2 days of stage 3, after stage 4
[9] = N50-3d: Noggin 50 ng/mL for 3 days of stage 3, after stage 4

B1: Activin: TGFβ superfamily growth factor (protein, UniProt P08476 311-426, looked up)
Inhibin beta A chain: GLECDGKVNICCKKQFFVSFKDIGWNDWIIAPSGYHANYCEGECPSHIAGTSGSSLSFHSTVINHYRMRGHSPFANLKSCCVPTKLRPMSMLYYDDGQNIIKKDIQNMIVEECGCS
modifications: Inhibin beta A chain
notes: TGFβ superfamily growth factor
[1]; 10 and 20 ng/mL at stage 3 with Heregulin, days 8, 10 and 12
  NGN3 and NKX2.2 expression: capable of repressing NGN3 and NKX2.2
[1]; about 50 ng/mL, standard adherent differentiation
  NGN3, PDX1 and NKX6.1 gene expression in PEC: capable of suppressing NGN3 expression without suppressing PDX1 and NKX6.1 gene expression
[2]; 5 ng/mL and 10 ng/mL at stages 3 and 4
  cell mass and yield of aggregates: capable of maintaining cell mass and yield
[2]; 50 ng/mL during stage 3, cell aggregate suspension culture
  cell mass of aggregates: the overall cell mass drastically decreased
[2]; stages 3 and 4, suspension culture
  Activin levels acceptable for maintaining cell mass and yield: less than 25 ng/mL
PEC derived from hESC; [4]
  CHGA+ (Endocrine): 54.9%
  CHGA−/NKX6.1+/PDX1+ (Non-endocrine): 38%
  CHGA−/NKX6.1−/PDX1+ (PDX ONLY): 4.1%
  CHGA−/NKX6.1−/PDX1− (Residual or Triple Negative): 2%
PEC derived from hESC; [5]
  CHGA+ (Endocrine): 54.7%
  CHGA−/NKX6.1+/PDX1+ (Non-endocrine): 31.7%
  CHGA−/NKX6.1−/PDX1+ (PDX ONLY): 6.7%
  CHGA−/NKX6.1−/PDX1− (Residual or Triple Negative): 5.4%
PEC derived from hESC; [6]
  CHGA+ (Endocrine): 56.2%
  CHGA−/NKX6.1+/PDX1+ (Non-endocrine): 33.7%
  CHGA−/NKX6.1−/PDX1+ (PDX ONLY): 4.6%
  CHGA−/NKX6.1−/PDX1− (Residual or Triple Negative): 3.9%

B2: BMP: BMP4, member of the bone morphogenetic protein family (protein, UniProt P12644 293-408, looked up)
Bone morphogenetic protein 4: SPKHHSQRARKKNKNCRRHSLYVDFSDVGWNDWIVAPPGYQAFYCHGDCPFPLADHLNSTNHAIVQTLVNSVNSSIPKACCVPTELSAISMLYLDEYDKVVLKNYQEMVVEGCGCR
[3]; 10 ng/mL at stages 6 and 7 or stage 7 alone
  Insulin and PDX1 expression: simultaneously increase Insulin and PDX1 expression
[3]; agent at days 30-35 during stage 7, analyzed at d35
  pancreatic-lineage gene expression: increases expression of INS, PDX1 and IDI; also recorded: decreased GHRL expression
[3]; stages 6 and 7
  ID1 gene expression: up-regulate inhibitor-of-differentiation (ID) gene expression

B3: noggin: protein that inactivates TGFβ superfamily signaling proteins such as BMP4 (protein, UniProt Q13253 28-232, looked up)
Noggin: QHYLHIRPAPSDNLPLVDLIEHPDPIFDPKEKDLNETLLRSLLGGHYDPGFMATSPPEDRPGGGGGAAGGAEDLAELDQLLRQRPSGAMPSEIKGLEFSEGLAQGKKQRLSKKLRRKLQMWLWSQTFCPVLYAWNDLGSRFWPRYVKVGSCFSKRSCSVPEGMVCKPSKSVHLTVLRWRCQRRGGQRCGWIPIQYPIISECKCSC
[1]; each additional day of noggin treatment, after stage 4 (day 12)
  endocrine lineage marker expression (NKX2.2, INS): increased levels of endocrine lineage marker expression
PEC derived from hESC; 3 days of Noggin at 50 ng/mL at stage 3, after stage 4
  non-endocrine multipotent pancreatic progenitor sub-population: 64.6%
PEC derived from hESC; [7]
  CHGA+ (Endocrine): 11.9%
  CHGA−/NKX6.1+ (Non-endocrine): 82%
PEC derived from hESC; [8]
  CHGA+ (Endocrine): 25.1%
  CHGA−/NKX6.1+ (Non-endocrine): 71.9%
PEC derived from hESC; [9]
  CHGA+ (Endocrine): 32.5%
  CHGA−/NKX6.1+ (Non-endocrine): 64.6%
PEC derived from hESC; each additional day of noggin treatment at stage 3
  production of cells committed to the endocrine lineage (CHGA+): increased levels of production of cells committed to the endocrine lineage (CHGA+)
